In IntAct's records for PubMed 14707132:

Molecular target: pak1_rat Pak1 (UniProt P35465)
Sequence (P35465 whole entry): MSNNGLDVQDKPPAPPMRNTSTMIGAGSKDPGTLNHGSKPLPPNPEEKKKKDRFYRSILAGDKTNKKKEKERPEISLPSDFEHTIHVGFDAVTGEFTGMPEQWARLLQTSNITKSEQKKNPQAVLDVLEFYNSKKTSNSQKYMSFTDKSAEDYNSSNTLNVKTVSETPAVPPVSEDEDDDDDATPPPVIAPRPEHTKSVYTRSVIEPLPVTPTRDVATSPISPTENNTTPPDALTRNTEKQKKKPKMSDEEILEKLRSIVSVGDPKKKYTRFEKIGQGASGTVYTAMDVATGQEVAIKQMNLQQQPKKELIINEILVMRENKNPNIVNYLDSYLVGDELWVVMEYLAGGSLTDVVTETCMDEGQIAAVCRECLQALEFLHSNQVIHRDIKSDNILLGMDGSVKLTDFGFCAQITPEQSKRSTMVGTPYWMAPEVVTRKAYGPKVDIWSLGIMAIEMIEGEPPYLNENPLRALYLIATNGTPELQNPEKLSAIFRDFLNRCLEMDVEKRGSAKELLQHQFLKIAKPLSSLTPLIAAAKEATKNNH

Chain of Serine/threonine-protein kinase OSR1 (Homo sapiens), O95747 K46A (O95747 whole entry K46A): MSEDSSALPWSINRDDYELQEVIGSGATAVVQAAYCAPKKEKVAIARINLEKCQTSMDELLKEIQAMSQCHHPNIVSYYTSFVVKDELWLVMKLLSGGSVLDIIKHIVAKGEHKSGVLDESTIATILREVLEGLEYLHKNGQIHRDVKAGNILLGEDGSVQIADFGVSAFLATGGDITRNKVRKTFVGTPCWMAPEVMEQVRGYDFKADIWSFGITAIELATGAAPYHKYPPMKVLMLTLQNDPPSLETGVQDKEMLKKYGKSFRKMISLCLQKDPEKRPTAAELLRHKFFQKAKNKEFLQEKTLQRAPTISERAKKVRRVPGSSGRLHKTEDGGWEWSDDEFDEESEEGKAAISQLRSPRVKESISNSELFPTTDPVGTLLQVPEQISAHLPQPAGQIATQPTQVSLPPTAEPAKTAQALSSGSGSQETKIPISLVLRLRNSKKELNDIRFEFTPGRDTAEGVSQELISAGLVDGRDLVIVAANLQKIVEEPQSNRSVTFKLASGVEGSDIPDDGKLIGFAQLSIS

effect of a mutation on the interaction: decreasing interaction
Substance: Serine/threonine-protein kinase OSR1 (Homo sapiens), O95747 K46A
